Measurements from paper PMC6300606.

Tests used:
[1] = target: TssG (EAEC, residues 64–366) (enteroaggregative Escherichia coli (EAEC)); experiment: cryo-EM structure; TssKSN–TssF–TssG complex co-expressed in E. coli and purified (Ni-NTA, Superose 6); 0.12 mg/ml in 20 mM Tris-HCl pH 7.8, 150 mM NaCl; single-particle cryoEM, 3.7 Å overall
[2] = target: TssKSN (shoulder and neck domains of EAEC TssK, residues 1–315) (enteroaggregative Escherichia coli (EAEC)); experiment: as above

Substance	stoichiometry N (TssF per TssG) [1]	stoichiometry N [2]
TssF (EAEC, full length) (natural protein)	2	–
TssKSN (shoulder and neck domains of EAEC TssK, residues 1–315) (domain or fragment)	–	3
